Assay results from the supplement of paper PMC12042874.
± gives the uncertainty stated by the source.

Experiments:
[1] = amyloid nucleation score (Sup35N fusion, yeast selection) (log enrichment); library NNK1; higher = more nucleation; inactive = no reads after selection
In short: (§1)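 Libraries of peptides of 20 random codons fused to Sup35N were expressed in psi-negative yeast and induced 24 hours with 100 μM copper sulfate. Selection was 7 days at 30°C on medium lacking adenine and uracil, and plasmid inserts were Illumina-sequenced before and after selection. Nucleation score is the DiMSum log enrichment of output over input reads, centred on the mode score of non-aggregating sequences, and sequences with under 100 input reads were left out.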

[2] = amyloid nucleation score (Sup35N fusion, yeast selection) (log enrichment); library NNK2; higher = more nucleation; inactive = no reads after selection
In short: as §1

| Substance | amyloid nucleation score [1] | amyloid nucleation score [2] |
| --- | --- | --- |
| AADGGYCRCGNDRKCLYAFR | inactive | – |
| AAFSDPRNRLMKPVELKHAL | 1.31 ± 0.9 | – |
| AAVGALGKSRSL | 1.17 ± 0.73 | – |
| ACQGWGTWEELGHDERTDLV | 0.817 ± 0.41 | – |
| ACQLLMCLCFFETKGLYLDG | 7.603 ± 0.053 | – |
| ACTGARCVRDQ | 0.452 ± 0.45 | – |
| ACTSLASFHYVLHPKYSCRV | 1.2 ± 0.76 | – |
| ADANCFRGWSRHHRTITQLR | 0.296 ± 0.64 | – |
| ADDYCQPGKIGVNNGPHRKR | -0.657 ± 1.7 | – |
| ADYVKMNRDFRVGTTYDMST | 1.18 ± 0.65 | – |
| AESSPSVG | 0.271 ± 0.57 | – |
| AEWVYITMGYAWLKRSNVVE | 0.092 ± 0.33 | – |
| AFFNCPSTNTVWQRFNANRF | 1.72 ± 0.14 | – |
| AFFVAVCASWFPGLYRY | 0.298 ± 0.23 | – |
| AFLCESFSLVWYWLLWEWRW | -0.126 ± 0.77 | – |
| AFNGVSNLEWL | -0.18 ± 1.7 | – |
| AFRQVRKIVQAGTGGVQ | -0.324 ± 0.58 | – |
| AFRRRGSVPRGRASPHIFVV | 7.948 ± 0.065 | – |
| AFSYRGGVMRSSFEMLTYVS | -0.906 ± 0.61 | – |
| AFYLLF | -0.395 ± 0.51 | – |
| AGCVPMGEGLGTLESNYSKY | 0.637 ± 0.52 | – |
| AGFQFSIDYR | 0.259 ± 0.51 | – |
| AGIKIGKEKGCHNYRFWWTV | 0.124 ± 0.5 | – |
| AGNRTVYWMLTSVSTSG | 0.64 ± 0.75 | – |
| AGRIETIEIGSSCLSVCGGY | 0.328 ± 0.58 | – |

| Substance | amyloid nucleation score [1] | amyloid nucleation score [2] |
| --- | --- | --- |
| AGRSNF | -0.062 ± 1.2 | – |
| AGSNSFIFFLVRFFVRALGR | -0.67 ± 0.34 | – |
| YLNSYNSC | – | -1.31 ± 1 |
| YLQYPYCSSKSFARDDLVKY | – | 0.173 ± 0.79 |
| YLRCMRSLYSMNLCDAFNAA | – | inactive |
| YLRDVYSSIFAPGMRYPQTR | – | 2.22 ± 0.094 |
| YLSQWLSEWGVQRYVESYAR | – | 0.445 ± 0.29 |
| YLVGRYETTVSTKMNKMRCW | – | -0.175 ± 0.53 |
| YLWDTEDYMRMWAKRWEKAR | – | 0.259 ± 0.56 |
| YLYKLFGDDFGDWFLICFFR | – | inactive |
| YLYSPLVMSSHYMLFT | – | 5.125 ± 0.048 |
| YMASWVSSAGSFV | – | 1.05 ± 0.29 |
| YMFAIHELNGEIIGPFTVNP | – | inactive |
| YMKVGFARWMGRPG | – | 3.89 ± 0.06 |
| YMMMIDL | – | -1.26 ± 0.64 |
| YMNSSLARISPRGSRCERQ | – | 0.162 ± 0.38 |
| YMTWQFITACMLTCSKSILS | – | 0.264 ± 0.49 |
| YMVEV | – | 0.171 ± 0.34 |
| YMYLVVCLIVSHDPVSVVEW | – | inactive |
| YNCCVKISVSM | – | 5.481 ± 0.042 |
| YNDSDFWGRVWSTHAPCKAT | – | -0.134 ± 1.1 |
| YNIHYMNVLIGALHL | – | 8.327 ± 0.056 |
| YNSTR | – | -0.082 ± 0.63 |
| YNSVELYFACLFLAHAVLVY | – | inactive |
| YNSVFLRNLRSVGWTKAPLW | – | -0.387 ± 0.76 |

| Substance | amyloid nucleation score [1] | amyloid nucleation score [2] |
| --- | --- | --- |
| YNVDVFWYGLKFNDLVVVHF | – | 3.73 ± 0.13 |
| YNVQFTSEIVSE | – | 0.001 ± 0.35 |
| YPCPAVVCSYAA | – | 0.705 ± 0.44 |
| YPKFYIWYYVYRLLALTCVY | – | -1.03 ± 0.37 |
| YPLCARILLNKDLWDGYLNS | – | inactive |
| YPNSLYFRPYAFILTEMSHH | – | inactive |
| YPPIISRLQY | – | inactive |
| YPYSSWRGSVHCELGINGMG | – | 0.29 ± 0.77 |
| YQGMFKFRRFDNVSVVHAMR | – | -0.359 ± 0.76 |
| YRCFGERIFLHAHRE | – | inactive |
| YRCLYGRKYVFRIEPIGIVH | – | -0.676 ± 0.35 |
| YRFRAIVNIYRCDVGFF | – | 6.36 ± 0.075 |
| YRFYSLRMYKFWWLTLTLCL | – | -1.12 ± 1.1 |
| YRHDVWLEE | – | 0.016 ± 0.23 |
| YRISMTAWSGRLSG | – | 4.03 ± 0.043 |
| YRLFWFNC | – | 1.74 ± 0.11 |
| YRLRMIFSMGMNNYVARWFH | – | -1.5 ± 1.1 |
| YRRCSRGNPGCDLAGFGRVV | – | -0.08 ± 0.74 |
| YRSWIGYCSNDVSQTLCTVM | – | 9.164 ± 0.024 |
| YRVRCLHWHLIFDCNKKRSK | – | -0.331 ± 1.1 |
| YRVVKPCWLHFGDLIVWTWC | – | 0.351 ± 0.35 |
| YRVVTSTVKMRLWSRGVYDH | – | 3.07 ± 0.088 |
| YRYKRLSRRV | – | -1.09 ± 0.78 |
| YSCFEMSCVGLGDVMIFIVL | – | 8.119 ± 0.037 |
| YSCRGEVKLKCDTSVGGPRR | – | 0.922 ± 0.2 |

| Substance | amyloid nucleation score [1] | amyloid nucleation score [2] |
| --- | --- | --- |
| YSFFIIVSALIGRWAS | – | -0.894 ± 1.1 |
| YSGRSAWLMLCGRPVRR | – | 1.11 ± 0.33 |
| YSIIFWCFKWYLIQGWLECA | – | inactive |
| YSLVLYWMWNCYRNRLDSGF | – | -0.185 ± 0.63 |
| YSLYINLSNAGIGVYPLKPA | – | 7.252 ± 0.062 |
| YSQGDGL | – | -0.038 ± 0.65 |
| YSRGIWCNLDGHERCVSLST | – | -0.266 ± 1.1 |
| YSSGF | – | -0.384 ± 0.39 |
| YSVEYFCHMFSLTCFNKF | – | 7.388 ± 0.057 |
| YSVGCCLRYYRSN | – | 0.661 ± 0.8 |
| YSVIRS | – | -0.171 ± 0.34 |
| YSVSVRLA | – | -0.553 ± 0.63 |
| YSYFSYVLRFMCSYLLALTQ | – | inactive |
| YSYILSFSSFFYFLRHCIKY | – | inactive |
| YSYSSFLKVSGLSSDRLGYI | – | -0.133 ± 0.49 |
| YSYVIWYMHHCFWLNLRKFM | – | 0.979 ± 0.67 |
| YTAQRLNSTYI | – | -0.506 ± 1 |
| YTIAECQSCPQNFLFFH | – | 5.96 ± 0.063 |
| YTLDMIIELSLDDGGYVVWG | – | 4.756 ± 0.04 |
| YTLFLPTRNLRFLVVYGVLV | – | 0.009 ± 0.61 |
| YTVRKNNLVVQESMFLSKCW | – | 0.855 ± 0.12 |
| YVIFHSEEMN | – | inactive |
| YVLRQEVCIIPINSMFVNSF | – | 6.091 ± 0.045 |
| YVMTFYTFTTIGGPGPWYGL | – | inactive |
| YVNDIRSKNPALEHEGDL | – | -0.58 ± 0.55 |

| Substance | amyloid nucleation score [1] | amyloid nucleation score [2] |
| --- | --- | --- |
| YVNFIVFTDMIWDS | – | 4.94 ± 0.09 |
| YVQSVHFSSMILQINPGSFN | – | 4.94 ± 0.065 |
| YVRGSDGSKKPWVYSAVGIF | – | -0.793 ± 1.1 |
| YVTCRCRYYLSFVIPIFWKR | – | -0.657 ± 0.25 |
| YVWRYVRPLVLAIDCVVAR | – | 0.001 ± 0.42 |
| YVYEIDYSRFQFCARWVGWA | – | 0.597 ± 0.48 |
| YWCFAI | – | -0.349 ± 0.26 |
| YWFFNWEWSGLVVYVGRFSA | – | inactive |
| YWFKSFSWFPVNIVIYNMEK | – | 5 ± 0.094 |
| YWGIRVCSDFGIPEFRTS | – | 2.05 ± 0.12 |
| YWKVCRM | – | 0.356 ± 0.74 |
| YWSRRAYCFCSAFFYNTGFF | – | 1.53 ± 0.19 |
| YWTNPYEMFISHYNKVFAFF | – | -0.436 ± 1.1 |
| YYAGLVTSDWNTRSLGGMCE | – | -0.506 ± 1 |
| YYDFVVNGGDGLSIEYNSRG | – | 0.405 ± 0.74 |
| YYFFCVNGGHDMGAILNMLW | – | 6.94 ± 0.086 |
| YYFNVLFSCYEEWFMFSSTS | – | inactive |
| YYICDLLHSRCEVKLD | – | -0.551 ± 0.37 |
| YYLTT | – | -1.6 ± 1 |
| YYQEHQTRLWIWSQHGLNAI | – | 0.864 ± 0.19 |
| YYQSIGLQYSRMKMGCKRND | – | 0.882 ± 0.18 |
| YYSFSGRATWGRNKSFMWVA | – | 0.089 ± 1.1 |
| YYTWCYKKVFGNHWRQDFD | – | -1.23 ± 0.64 |
| YYVHQTHVSCLLAVLCPSLK | – | 8.901 ± 0.039 |
| YYVSSVLWIRYYQGNRTRSW | – | -0.901 ± 0.44 |
